The results in this text go back to patent publication US20130079280A1.

In the assay the target is Murine CD40L on the Th2 cell line D10.G4.1 (murine) (UniProt P27548). Nature of the assay: cell-based or functional assay.
Murine CD40L on the Th2 cell line D10.G4.1 (murine), sequence (P27548 whole entry): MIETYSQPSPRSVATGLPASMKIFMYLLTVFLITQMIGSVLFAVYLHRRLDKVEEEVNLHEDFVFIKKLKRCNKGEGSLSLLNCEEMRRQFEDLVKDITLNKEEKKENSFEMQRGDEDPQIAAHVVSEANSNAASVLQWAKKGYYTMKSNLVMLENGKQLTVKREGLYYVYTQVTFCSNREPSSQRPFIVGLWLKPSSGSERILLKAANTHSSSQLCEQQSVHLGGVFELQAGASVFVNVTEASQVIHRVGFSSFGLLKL

MR1, anti-murine CD40L antibody gave an IC50, inhibition of CD86 expression on CD19 gated B cells of 0.1 nM.
